The source of these data is publication doi:10.1101/2022.06.05.494914.

The assay addresses PTH 1 receptor (PTH1R), his-tagged (UniProt Q03431). Nature of the assay: BLI.
Chain of UniProt Q03431 (Q03431 27-593): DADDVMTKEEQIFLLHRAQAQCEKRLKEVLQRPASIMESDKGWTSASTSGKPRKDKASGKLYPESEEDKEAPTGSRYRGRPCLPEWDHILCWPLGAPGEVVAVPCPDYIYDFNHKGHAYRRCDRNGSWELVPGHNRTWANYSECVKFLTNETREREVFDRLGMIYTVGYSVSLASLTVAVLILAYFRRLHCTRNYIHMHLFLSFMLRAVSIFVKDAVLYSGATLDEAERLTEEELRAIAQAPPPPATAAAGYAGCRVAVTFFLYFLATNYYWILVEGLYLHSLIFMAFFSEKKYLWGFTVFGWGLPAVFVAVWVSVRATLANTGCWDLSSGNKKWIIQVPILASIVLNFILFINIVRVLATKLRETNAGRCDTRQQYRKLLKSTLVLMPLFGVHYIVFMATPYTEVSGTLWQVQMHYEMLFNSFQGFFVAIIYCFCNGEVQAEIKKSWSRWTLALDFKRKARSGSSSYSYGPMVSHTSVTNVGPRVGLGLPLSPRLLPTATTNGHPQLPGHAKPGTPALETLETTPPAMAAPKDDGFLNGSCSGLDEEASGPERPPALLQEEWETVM

The substance PTH-Fc fusion protein showed a Kd of 2300 nM. In the case of “Parathyroid Hormone PTH (1-34) (peptide)” it was 2310 nM.
